System: MS2 coat protein
Assay: apparent KD of MS2 coat protein; higher = weaker reporter binding
Details: Eterna round: R107
Method in brief: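 Designed RNA switches were transcribed on-chip from Illumina sequencing clusters and titrated with SNAP-549-labelled MS2 coat protein in twofold steps from 0.7 or 1.5 nM up to 3 µM. Each step lasted 0.8–1.5 h at first and 10–20 min by the end, in 100 mM Tris-HCl pH 7.5, 80 mM KCl and 4 mM MgCl2, without or with constant ligand. Apparent KD is the median, for each design, of fits to normalised cluster binding curves.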

[1] = input ligand: theophylline 20 uM
[2] = input ligand: theophylline 2 mM
[3] = input ligand: tryptophan 2.4 mM

Sequence | apparent KD of MS2 coat protein (input ligand: arginine 13.2 mM) | apparent KD of MS2 coat protein (input ligand: none) | apparent KD of MS2 coat protein [1] | apparent KD of MS2 coat protein [2] | apparent KD of MS2 coat protein [3]
GUGACUUACGGGCGCCAUUUGUAAUAGGAAGGAGCGGCGAAAUAGCCAGGUAGGUCGCCUAUACAUGAGGAUCACCCAUGUCACC [Esatbileor] | 46.9 nM | 91.9 nM | 105 nM | 105 nM | 77.8 nM
AAAAUCCUACCUGAGGAUCACCCAGGUGAAGGAGCGCCCGAAAGGGCAGGUAGGUCGCACCUGAGGAUCACCCUGGUACCUAAAA [ArgAX 27 #DoubleMs2 #OpenEnded #AlternativeMS2] | 86.2 nM | 61 nM | 85.8 nM | 104 nM | 63.1 nM
CGGUUUGUGAUGGAUACCAGCAGAGUGACUGUUUAUCCUGACAUGAGGAUCACCCAUGUGUGCCCUUGGCAGCUGUUGUGGGCUG [8.aA] | 66.3 nM |  | 111 nM |  | 65.7 nM
CCUAUGCAGUCGGCCGCCACUGAACAUGAGGAUCACCCAUGUAAUUAAAAUUAUGAUCCUGAAAUCAGGACCGGGACUGUAUAGG [Ex Tryptophan B 5] | 28.6 nM |  | 165 nM | 431 nM | 
AGUCUUAUAGGAAGGAGCGCAAUCAUCACAUGAGGAUCACCCAUGUCAAGGUGAGAGUCAUUGCAGGUAGGUCGCCUAACUAAGA [Same State - Arginine B (Freestyle 9)] | 150 nM | 241 nM | 173 nM | 251 nM | 213 nM
ACAUGAGGAUCACCCAUGUAGCCUAGGGAAGGAGCGUCGUAAGAGACAGGUAGGUCGCCCGCAUGUGAGUCAUCCAUGACGAGGG [#18 Same State - Arginine A] | 25.7 nM | 25.9 nM | 30.1 nM | 23.6 nM | 21.1 nM
CCUUACGUUGGGCAGCCAGUUCGAAGUGAUACCAGUCACAAAAGUGACCCUUGGCAGCACCGCACAUGAGGAUCACCCAUGUCUA [SSThA NP+V+V2 #8 Same Structure] | 36.4 nM | 34.8 nM | 55.1 nM | 63.3 nM | 62.8 nM
GUCAGUUCUCAUGAUACCAGACCUGCCUCGGACAUGAGGAUCACCCAUGUACCCAAGCGAGUCCCUUGGCAGCAUGUGGCUUAAA [Ririatre] | 24.7 nM |  | 19.4 nM |  | 20.7 nM
CAAACAUGAGGAUCACCCAUGUAAUCAGAUACCAGUGACGAAAGUCACCCUUGGCAGCUGAGUACAUAUUGGCAGAGGUGUUUGA [EThA NP+V+V2 #7] | 41.4 nM |  | 94.2 nM |  | 64.4 nM
AGAUAACAUGGUUUAAUAAGAUAAACUGAUACCAGUGUAUAUAAUCACCCUUGGCAGCAGCAACAUGAGGAUCACCCAUGUAAUA [JR_SSTheophyA_Sub014] | 14.9 nM |  | 19.6 nM |  | 20.6 nM
ACCUGCGUUUGAUUCUAUCAGACGCAGGUUCGAGGACCGGUACGGCCGCCACUCGGACAUGAGGAUCACCCAUGUUUGACAUGGG [#04 Exclusion Tryptophan A] | 134 nM |  | 281 nM | 1010 nM | 
AAGACGGUCGGAAGGAGCGGUACAUGAGGAUCACCCAUGUACUUCUGGGCAUCCGUAGUGUGCCAGGUAGGUCGCCGAUUGCGGG [XArg-B12] | 32.7 nM | 22.4 nM | 36.3 nM | 24.9 nM | 22.8 nM
UUAAAUGUGACGGAUACCAGCGUGUUGUAGAACAUGAGGAUCACCCAUGUAGUGAUCGAGCGCCCUUGGCAGCUGGUAUGUUUGA [7.Y] | 102 nM |  | 365 nM |  | 270 nM
GUAAGAGUAGGAAGGAGCGCUUUACAUGAGGAUCACCCAUGUGUGCCCUCAAUUUCGGUAAAGCAGGUAGGUCGCCUAAACUUGC [Tiqurabi] | 31.2 nM | 34.5 nM | 175 nM | 67.5 nM | 57 nM
AUUAAUAAUAUGUAGACGGCGGAGACGAGACGAGGACCGGUACGGCCGCCACUCGUGUUAGUUAACAUGAGGAUCACCCAUGUUA [#10 Tryptophan A Same State] | 11.2 nM |  | 17.5 nM | 13.9 nM | 
UGGUGUAGGGUAAAUAGGAUUAGUACAGAAGGAGCGCGAAUAAACGCAGGUAGGUCGCUGGAAUAACAUGAGGAUCACCCAUGUC [Same State Arginine A GF 26] | 19.6 nM | 24.8 nM | 30.6 nM | 26.2 nM | 27.8 nM
CCGUCCCUCGGAAGGAGCGGCGCAAUGUAAGGGACCUUUUAUACAUGAGGAUCACCCAUGUGCCAGGUAGGUCGCCGAGAGCGUG [Erxeatge] | 79.5 nM | 77.2 nM | 74 nM | 145 nM | 140 nM
UUAUAAGUACCGGUCCUCAGAUCCUCAUGACGAGGACCGGUACGGCCGCCACUCGAAACAUGAGGAUCACCCAUGUAAUAAUACU [Brourdmod08] | 21 nM |  | 34.5 nM | 33.1 nM | 
AGUACAUGAGGAUCACCCAUGUGCCGGUAACGAGGACCGGUACGGCCGCCACUCGAUGUACCUCAAUUUGAUUGAGAUAAGAAAA [Anorbian] | 34.2 nM |  | 57.6 nM | 47.4 nM | 

Sequence | apparent KD of MS2 coat protein (input ligand: arginine 13.2 mM) | apparent KD of MS2 coat protein (input ligand: none) | apparent KD of MS2 coat protein [1] | apparent KD of MS2 coat protein [2] | apparent KD of MS2 coat protein [3]
UGACAUUGCUCAGAUACCAGACAUGAGGAUCACCCAUGUACCAAGAAAACGUACAUAAAUGUCCCUUGGCAGCUGAGCAAUGUCU [TheoBX 10 #MS2Left #Theo2] | 175 nM |  | 535 nM |  | 531 nM
AAUAAACAUGAGGAUCACCCAUGUAUGGAAGGAGCGGUAAAUAAACCAGGUAGGUCGCCAGUGUGAGGGUCAUCUAUGUAAUAAA [Exclusion - Arginine A (Freestyle 1)] | 40.8 nM | 32 nM | 53.6 nM | 74.9 nM | 33.4 nM
ACAUGAGGAUCACCCAUGUGUGUAAGUUCUCGAGGACCGGUACGGCCGCCACUCGAACGAGUGUAACGUUAUACUUAGUAUAAUG [SS Trp A s4] | 22.6 nM | 11.4 nM | 21.3 nM | 15.2 nM | 11.4 nM
AACAUCUGGCGUGAUACCAGCCACAUGAGGAUCACCCAUGUCAACACUCGCAAUUGCGACGGCCCUUGGCAGCACGCAUCCUCAG [Sorioncege] | 49 nM |  | 34.8 nM |  | 60.9 nM
UAAUAAAUAAAUCCAAGGUGAAGGUCAGAUACCAGCCAGAUAACUGGCCCUUGGCAGCUGAAUAAACUUGAGGAACACCCAAGUA [TheoAS 28 #OpenEnded #MS2Late #AlternativeMS2] | 16.7 nM | 23 nM | 31.3 nM | 82 nM | 22.7 nM
UAAACUACACAUGAGGAUCACCCAUGUGGCCGAGGACCGGUACGGCCGCCACUCGUGUGUUAAUAAAAGAACCGCAAAGUUCUUU [Raesonisso] | 74.2 nM |  | 410 nM | 678 nM | 
AAUUAAAACUGAAGGAGCGUCGUGCGUGGGUGCGUCCCACAUGAGGAUCACCCAUGUGGUUGACAGGUAGGUCGCAGAAUAAUUU [Exclusion - Arginine B] | 66.9 nM | 49.7 nM | 95.5 nM | 155 nM | 36.6 nM
GGACCAUGGAGCGAUACCAGCUUGAGUGUGCUGGCCAGGCACAUGAGGAUCACCCAUGUAAGCCCUUGGCAGCGCUCCAUGGUCC [#1 Exclusion - Theophylline B Attempt #26 (HarryS)] | 7.45 nM | 8.39 nM | 13.3 nM | 13.5 nM | 10.6 nM
GGAUGAAACUGAAGGAGCGAGAACACAAGAAUGGGUCAAACAUGAGGAUCACCCAUGUAAUCUCAGGUAGGUCGCAGUAUCCCUU [Exclusion Arginine B GF 10] | 44 nM | 34.3 nM | 50 nM | 53.3 nM | 36.6 nM
GUUAUAUACUCGGCCGCCACUGAGAGAGUCAUGUAAACAUGAGGAUCACCCAUGUAAUAUAUAUACAGGACCGGGAGUAUAGUAA [4.D] | 19.8 nM |  | 22 nM | 19.6 nM | 
GUGUGGAGCUCGGCCGCCACUCAAACAUGAGGAUCACCCAUGUAAAACAUGAGGAUCACCCAUGUGAGGACCGGGAGAAACACGA [Exclusion Tryptophan B GF8] | 179 nM |  | 329 nM | 408 nM | 
GGCCCUGCGGGCGCCCGCAGGGCCGCGGAUACCAGCGAGGUCCAUCGCCCUUGGCAGCCGAACAUGAGGAUCACCCAUGUCGGUG [Same State - Theophylline A Attempt #8 (HarryS)] | 10.6 nM | 12.9 nM | 20.4 nM | 89.6 nM | 12.9 nM
CUAUAUGGAAACAUAUAGAAGCGAAAGCAACGAGGACCGGUACGGCCGCCACUCGAAGAGUGGUGGACAUGAGGAUCACCCAUGU [Design 3] | 40.8 nM |  | 71.6 nM | 99.6 nM | 
UGUAUUGGAAACAGUACUAGUGAUCCGGUCCGAGGACCGGUACGGCCGCCACUCGAUAUAAAUAAACAUGAGGAUCACCCAUGUA [Ex Tryptophan A 13] | 23.3 nM |  | 17.1 nM | 18 nM | 
AAUCAUAGGGCGGCCGCCACUAAACAUGAGGAUCACCCAUGUCUCGAGGGCUUGCGUUUGGGAAGUAGGACCGGGCCAAUAGUAA [Tryp B Ex Mod2] | 18 nM | 19.1 nM | 23 nM | 17 nM | 16.1 nM
AGCCUAUUACAUGAGGAUCACCCAUGUGAUACCAGUCAGGAAACUGACCCUUGGCAGCGCAUGAGGAUCACCCAUGCGCUAGGCA [Omei Theo A Exc A v5] | 9.15 nM |  | 12.3 nM |  | 10 nM
GCUGUAAGUGCAGAUACCAGCAAGUGAGGUUUCAUAUGACAUGAGGAUCACCCAUGUAUCUGCCCUUGGCAGCUGCACUUACAGC [#28 Same State - Theophylline B] | 17 nM |  | 24.2 nM |  | 21.7 nM
UUAAAUGUGACGGAUACCAGCGUGUUGUAGAACAUGAGGAUCACCCAUGUAGUGAUCAAGCGCCCUUGGCAGCUGGUAUGUUUGA [7.Z] | 227 nM |  | 224 nM |  | 124 nM
AGAUGUAGCGGAAGGAGCGUCAUGAGGAUCACCCAUGACUCCCGUUGUGGGAGUUCCUUAGGUCAGGUAGGUCGCCGUUACGUCA [Omei Arg B SS B v5] | 91.4 nM | 390 nM | 563 nM | 596 nM | 426 nM

— the supplement of paper PMC9170038
